Measured values published in patent US20250042994A1 (HAINAN SIMCERE ZAIMING PHARMACEUTICAL, published 2025).

T1: human CD19 on Raji cells (human, UniProt P15391 20-556)
T1 construct: whole, on cells
T1 sequence (looked up): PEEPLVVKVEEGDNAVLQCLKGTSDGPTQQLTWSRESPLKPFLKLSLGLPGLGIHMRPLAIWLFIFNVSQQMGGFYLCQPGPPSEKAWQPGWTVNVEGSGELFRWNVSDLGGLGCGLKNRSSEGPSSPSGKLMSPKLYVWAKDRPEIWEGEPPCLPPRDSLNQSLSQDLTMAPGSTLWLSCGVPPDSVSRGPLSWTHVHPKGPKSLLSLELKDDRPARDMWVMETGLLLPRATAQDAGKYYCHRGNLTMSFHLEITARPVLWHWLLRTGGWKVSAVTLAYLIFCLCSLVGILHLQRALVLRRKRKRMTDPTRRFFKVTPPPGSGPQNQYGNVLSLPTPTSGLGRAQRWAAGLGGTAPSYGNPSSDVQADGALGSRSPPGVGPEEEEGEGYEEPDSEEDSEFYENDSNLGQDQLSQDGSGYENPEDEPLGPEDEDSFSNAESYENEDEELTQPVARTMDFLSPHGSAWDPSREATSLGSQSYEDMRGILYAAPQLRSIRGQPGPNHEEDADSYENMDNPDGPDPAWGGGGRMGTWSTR

T2: Human CD19-his protein (human, UniProt P15391 20-291)
T2 construct: bought protein; also called recombinant human CD19-His; CD19 full-length protein; not shown: His tag
T2 sequence (looked up): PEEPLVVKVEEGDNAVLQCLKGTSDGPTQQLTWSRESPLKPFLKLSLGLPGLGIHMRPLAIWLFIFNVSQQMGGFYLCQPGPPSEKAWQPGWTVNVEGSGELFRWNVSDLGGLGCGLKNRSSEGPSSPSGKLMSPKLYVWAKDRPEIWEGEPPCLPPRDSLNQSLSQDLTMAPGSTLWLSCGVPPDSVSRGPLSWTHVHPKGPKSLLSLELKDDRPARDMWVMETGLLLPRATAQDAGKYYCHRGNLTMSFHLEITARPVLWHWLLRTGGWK

T3: human CD19 on CHO-K1-human CD19 cells (human, UniProt P15391 20-556)
T3 construct: whole, on cells; also called CHO-K1-human CD19-2C8
T3 sequence (looked up): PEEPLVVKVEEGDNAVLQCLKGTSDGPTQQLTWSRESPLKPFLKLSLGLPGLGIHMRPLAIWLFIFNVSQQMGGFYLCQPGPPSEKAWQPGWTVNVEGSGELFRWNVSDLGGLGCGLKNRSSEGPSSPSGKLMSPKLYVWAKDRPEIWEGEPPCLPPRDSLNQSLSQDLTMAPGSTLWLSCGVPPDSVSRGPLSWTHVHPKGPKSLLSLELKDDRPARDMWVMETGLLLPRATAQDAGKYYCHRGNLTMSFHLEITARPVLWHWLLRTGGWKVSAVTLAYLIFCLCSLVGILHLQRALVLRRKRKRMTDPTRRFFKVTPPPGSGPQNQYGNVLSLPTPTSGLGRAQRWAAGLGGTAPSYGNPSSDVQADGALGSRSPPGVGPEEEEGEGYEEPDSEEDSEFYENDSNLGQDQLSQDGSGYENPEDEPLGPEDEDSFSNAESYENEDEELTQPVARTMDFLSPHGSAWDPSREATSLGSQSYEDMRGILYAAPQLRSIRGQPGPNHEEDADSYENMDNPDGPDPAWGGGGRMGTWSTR

T4: human CD19 exon1-3-His tag protein (human, UniProt P15391 20-186, limits assumed)
T4 construct: membrane-distal part of the extracellular region, made in HEK293E cells; not shown: His tag
T4 sequence (looked up): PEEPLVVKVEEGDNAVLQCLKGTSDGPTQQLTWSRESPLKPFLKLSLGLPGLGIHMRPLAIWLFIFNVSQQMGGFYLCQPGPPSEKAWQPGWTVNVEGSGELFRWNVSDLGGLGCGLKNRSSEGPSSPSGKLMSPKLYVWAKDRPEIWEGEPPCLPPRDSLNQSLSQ


Experiments:
[1] = target: T1, human CD19 on Raji cells; test: FACS on Raji cells
Protocol: (§1) After the digestion was terminated, the cells were washed 2 times with a PBS buffer; and for suspension cell Raji, the supernatant of the medium was discarded by directly centrifugation, and the cell pellet was washed 2 times with PBS. After counting the cells in the previous step, the cell pellet was resuspended with [PBS+2% (w/w) BSA] blocking solution to 2×10⁶ cells/ml, and added to a 96-well FACS reaction plate at 50 μl/well, and then the sample to be tested was added at 50 μl/well, and incubated on ice for 2 h. The obtained mixture was centrifuged and washed 3 times with a PBS buffer. […] The obtained mixture was centrifuged and washed 5 times with a PBS buffer, and FACS (FACS Canto™, purchased from BD Company) was used for detection and result analysis. Data analysis was performed by software (FlowJo) to obtain the mean fluorescence intensity (MFI) of the cells. And then software (GraphPad Prism8) was used for analysis, data fitting, and EC50 value calculation. […] The same method was used to detect the binding of the chimeric antibodies to endogenous CD19-negative cells, MoLT4 cells (purchased from ATCC, CRL-1582), and CHO-K1 cells.

[2] = target: T2, Human CD19-his protein; test: ELISA, coated human CD19-His
Protocol: Human CD19-his protein (purchased from ACROBiosystems, catalog number: CD9-H52H2) was diluted with PBS to a final concentration of 4 μg/mL, and then added to a 96-well ELISA plate at 100 μl/well. The plate was sealed with a plastic film and incubated overnight at 4° C., the plate was washed 2 times with PBS the next day, and then a blocking solution [PBS+2% (w/w) BSA] was added for blocking at room temperature for 2 h. The blocking solution was poured off, and 100 nM gradiently diluted CD19 chimeric antibody or control antibody was added at 50 μl/well. After incubation at 37° C. for 2 h, the plate was washed 3 times with PBS. […] TMB substrate was added at 50 μl/well, and incubated at room temperature for 10 min, and then a stop solution (1.0 N HCl) was added at 50 μl/well. The OD450 nm values were read by an ELISA microplate reader (Multimode Plate Reader, EnSight, purchased from Perkin Elmer).

[3] = target: T3, human CD19 on CHO-K1-human CD19 cells; test: FACS on CHO-K1-human CD19 cells
Protocol: as §1

[4] = target: T2, Human CD19-his protein; test: ELISA on coated human CD19-His
[5] = target: T4, human CD19 exon1-3-His tag protein; test: ELISA, coated human CD19 exon 1-3-His
[6] = target: T2, Human CD19-his protein; test: SPR Biacore, method of example 7.1, human CD19-His
Protocol: A sample buffer and a running buffer were HBS-EP+ (10 mM HEPES, 150 mM NaCl, 3 mM EDTA and 0.05% surfactant P20) (GE Healthcare; BR-1006-69). The flow-through cell was set to 25° C. The sample block was set to 16° C. Both were pretreated with the running buffer. In each cycle, an antibody to be detected was first captured with a Protein A chip, and then a single concentration of CD19 antigen protein was injected. The binding and dissociation processes of the antibody and the antigen protein were recorded, and finally Glycine pH 1.5 (GE Healthcare; BR-1003-54) was used to complete chip regeneration. The binding was measured by injecting different concentrations of recombinant human CD19-His proteins in a solution for 240 s with a flow rate of 30 μl/min. The concentration started from 200 nM (see the detailed results for the actual concentration in the test) and was diluted at 1:1, making a total of 5 concentrations. The dissociation phase was monitored for up to 600 s and was triggered by switching from sample solution to running buffer. The surface was regenerated by washing with a 10 mM glycine solution (pH 1.5) for 30 s at a flow rate of 30 μl/min. Bulk refractive index difference was corrected by subtracting the response obtained from the goat anti-human Fc surface. Blank injection was also subtracted (=double reference). For calculation of apparent KD and other kinetic parameters, Langmuir 1:1 model was used.
SPR (biacore) detection and data analysis were performed according to the method in example 7.1.

| EC50 [1] [nM] | Maximum mean fluorescence intensity [1] [MFI] | OD450 at 0.0001 nM [2] [OD450] | OD450 at 0.001 nM [2] [OD450] | OD450 at 0.01 nM [2] [OD450] | OD450 at 0.10 nM [2] [OD450] | OD450 at 1.00 nM [2] [OD450] | OD450 at 10 nM [2] [OD450] | OD450 at 100 nM [2] [OD450] | EC50 [3] [nM] | Maximum mean fluorescence intensity [3] [MFI] | EC50 (read off the curve) [4] [nM] | OD450 at 0.0001 nM [5] [OD450] | OD450 at 0.001 nM [5] [OD450] | OD450 at 0.01 nM [5] [OD450] | OD450 at 0.10 nM [5] [OD450] | OD450 at 1.00 nM [5] [OD450] | OD450 at 10 nM [5] [OD450] | OD450 at 100 nM [5] [OD450] | Kd [6] [nM] | Binder | further results |
| --- | --- | --- | --- | --- | --- | --- | --- | --- | --- | --- | --- | --- | --- | --- | --- | --- | --- | --- | --- | --- | --- |
| 0.37 | 29200 | 0.1 | 0.14 | 0.39 | 1.53 | 2.36 | 2.27 | 2.34 | 1.13 | 52000 | ~0.05 | 0.05 | 0.05 | 0.05 | 0.05 | 0.04 | 0.05 | 0.08 | 1.53 | F3.121.4-L2H4 (antibody, mouse IgG1, kappa, humanized antibody of F3.121.4, VL2+VH4, murine IgG1 constant regions) heavy: EVQLQQSGAEVKKPGASVKVSCKASGYTFTNYWMHWVRQRPGQGLEWMGEIDPSDNYANYNQEFQGRVTITVDKSASTAYMELSSLRSEDTAVYYCARHDGYFGALDYWGQGTTVTVSSAKTTPPSVYPLAPGSAAQTNSMVTLGCLVKGYFPEPVTVTWNSGSLSSGVHTFPAVLQSDLYTLSSSVTVPSSTWPSETVTCNVAHPASSTKVDKKIVPRDCGCKPCICTVPEVSSVFIFPPKPKDVLTITLTPKVTCVVVDISKDDPEVQFSWFVDDVEVHTAQTQPREEQFNSTFRSVSELPIMHQDWLNGKEFKCRVNSAAFPAPIEKTISKTKGRPKAPQVYTIPPPKEQMAKDKVSLTCMITDFFPEDITVEWQWNGQPAENYKNTQPIMDTDGSYFVYSKLNVQKSNWEAGNTFTCSVLHEGLHNHHTEKSLSHSPGK light: EIVLTQSPDFQSVTPKEKVTITCSASSSISSNYLHWYQQKPDQSPKLLIKRTSNLASGVPSRFSGSGSGTDFTLTINSLEAEDAATYYCQQASSIPRMFTFGQGTKLEIKRADAAPTVSIFPPSSEQLTSGGASVVCFLNNFYPKDINVKWKIDGSERQNGVLNSWTDQDSKDSTYSMSSTLTLTKDEYERHNSYTCEATHKTSTSPIVKSFNRNEC | koff [6]: 0.000186 s⁻¹; kon [6]: 122000 M⁻¹ s⁻¹ |
| 0.45 | 29600 | 0.1 | 0.14 | 0.39 | 1.55 | 2.47 | 2.33 | 2.32 | 1.17 | 52200 | ~0.05 | 0.05 | 0.05 | 0.05 | 0.05 | 0.05 | 0.05 | 0.08 | 1.38 | F3.121.4-L2H3 (antibody, mouse IgG1, kappa, humanized antibody of F3.121.4, VL2+VH3, murine IgG1 constant regions) heavy: EVQLVQSGAEVKKPGASVKVSCKASGYTFTNYWMHWVRQRPGQGLEWMGEIDPSDNYANYNQEFQGRVTITVDKSASTAYMELSSLRSEDTAVYYCARHDGYFGALDYWGQGTTVTVSSAKTTPPSVYPLAPGSAAQTNSMVTLGCLVKGYFPEPVTVTWNSGSLSSGVHTFPAVLQSDLYTLSSSVTVPSSTWPSETVTCNVAHPASSTKVDKKIVPRDCGCKPCICTVPEVSSVFIFPPKPKDVLTITLTPKVTCVVVDISKDDPEVQFSWFVDDVEVHTAQTQPREEQFNSTFRSVSELPIMHQDWLNGKEFKCRVNSAAFPAPIEKTISKTKGRPKAPQVYTIPPPKEQMAKDKVSLTCMITDFFPEDITVEWQWNGQPAENYKNTQPIMDTDGSYFVYSKLNVQKSNWEAGNTFTCSVLHEGLHNHHTEKSLSHSPGK light: EIVLTQSPDFQSVTPKEKVTITCSASSSISSNYLHWYQQKPDQSPKLLIKRTSNLASGVPSRFSGSGSGTDFTLTINSLEAEDAATYYCQQASSIPRMFTFGQGTKLEIKRADAAPTVSIFPPSSEQLTSGGASVVCFLNNFYPKDINVKWKIDGSERQNGVLNSWTDQDSKDSTYSMSSTLTLTKDEYERHNSYTCEATHKTSTSPIVKSFNRNEC | koff [6]: 0.000188 s⁻¹; kon [6]: 137000 M⁻¹ s⁻¹ |
